What was measured:
Test in all cases: purified protein
purified protein [1] = substrate: CCCCCC(O)/C=C/C=O; details: NAD+
purified protein [2] = substrate: CC(=O)Oc1ccc([N+](=O)[O-])cc1; format: biochemical, Homo sapiens
purified protein [3] = substrate: CC=O; format: biochemical, Homo sapiens; details: NAD+
purified protein [4] = substrate: CCCCCC=O; format: biochemical, Homo sapiens; details: NAD+
purified protein [5] = substrate: CCCCCCCC=O; format: biochemical, Homo sapiens; details: NAD+
purified protein [6] = substrate: O=Cc1ccccc1; format: biochemical, Homo sapiens; details: NAD+

B1: ALDH3B1 (Homo sapiens) (protein)
chain: MDPLGDTLRRLREAFHAGRTRPAEFRAAQLQGLGRFLQENKQLLHDALAQDLHKSAFESEVSEVAISQGEVTLALRNLRAWMKDERVPKNLATQLDSAFIRKEPFGLVLIIAPWNYPLNLTLVPLVGALAAGNCVVLKPSEISKNVEKILAEVLPQYVDQSCFAVVLGGPQETGQLLEHRFDYIFFTGSPRVGKIVMTAAAKHLTPVTLELGGKNPCYVDDNCDPQTVANRVAWFRYFNAGQTCVAPDYVLCSPEMQERLLPALQSTITRFYGDDPQSSPNLGRIINQKQFQRLRALLGCGRVAIGGQSDESDRYIAPTVLVDVQEMEPVMQEEIFGPILPIVNVQSLDEAIEFINRREKPLALYAFSNSSQVVKRVLTQTSSGGFCGNDGFMHMTLASLPFGGVGASGMGRYHGKFSFDTFSHHRACLLRSPGMEKLNALRYPPQSPRRLRMLLVAMEAQGCSC
B1 was tested, and the Km (purified protein [1]) was 52 ± 5 µM, the Vmax (purified protein [1]) was 0.653 µmol/min/mg and the Km (purified protein [2]) was 3600 ± 250 µM. It also gave a Vmax (purified protein [2]) of 1.32 µmol/min/mg, a Km (purified protein [3]) of 23300 ± 1500 µM and a Vmax (purified protein [3]) of 0.315 µmol/min/mg. It also gave a Km (purified protein [4]) of 62 ± 8 µM, a Vmax (purified protein [4]) of 0.679 µmol/min/mg and a Km (purified protein [5]) of 8 ± 2 µM. It also gave a Vmax (purified protein [5]) of 1.24 µmol/min/mg, a Km (purified protein [6]) of 46 ± 11 µM and a Vmax (purified protein [6]) of 0.129 µmol/min/mg.

Source: PMC3457645
